Legend:
human 5T4 on cells [1] = target: T1, human 5T4 on cells (human, UniProt Q13641 32-420); assay: flow cytometry, BxPC-3 cells, streptavidin-PE, normalized MFI of 2 pooled experiments
T1 construct: Human 5T4 on transfected cells (CHO-K1, CT26, B16) or endogenous on human tumour lines; the cell line is named under assay; also called trophoblast glycoprotein; TPBG
T1 sequence: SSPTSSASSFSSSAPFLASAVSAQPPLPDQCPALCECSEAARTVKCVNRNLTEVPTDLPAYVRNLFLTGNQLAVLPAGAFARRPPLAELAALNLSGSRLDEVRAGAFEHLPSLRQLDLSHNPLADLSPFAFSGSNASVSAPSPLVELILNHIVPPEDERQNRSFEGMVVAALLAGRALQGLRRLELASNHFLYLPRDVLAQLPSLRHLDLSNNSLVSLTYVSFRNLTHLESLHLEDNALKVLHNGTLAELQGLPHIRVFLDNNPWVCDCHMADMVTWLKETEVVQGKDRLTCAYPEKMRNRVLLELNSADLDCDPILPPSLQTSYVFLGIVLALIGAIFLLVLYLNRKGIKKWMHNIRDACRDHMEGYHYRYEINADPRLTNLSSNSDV
Experimental: (§1) FACS staining and analysis of 5T4-expressing cell lines: Prior to the FACS staining, all cell lines were characterized for their 5T4 expression levels using a receptor density kit (Quantum Simply Cellular, anti-human IgG, Bangs Laboratories, Inc). Adherent cell lines were cultured according to their supplier's instructions and were harvested from their cell culture flasks using Trypsin/EDTA, counted in R10 medium in a Burker chamber, and diluted in FACS buffer (PBS+0.5% BSA, 0.05% NaN₃) to a concentration of 4×10⁶ cells/mL. 50 μL (0.20×10⁶) of cell solution was added to a 96-well FACS staining plate (Falcon #351190). Cells were incubated for 20 min in 4° C. with 50 μL of the biotinylated ALG.APV-210 (2× final concentration). The antibodies were added in a serial dilution starting at 20 μg/mL titrating down in a 12 step 1/2 dilution down to 0.010 μg/mL. […] Cells were analysed for ALG.APV-210 binding using flow cytometry (FACSVerse) by gating on single cells. MFI values (secondary antibody only subtracted) from 1 out of 2 independent experiments, as well as normalized data and EC₅₀-values of pooled data from 2 experiments were determined and plotted using GraphPad Prism 7, non-linear regression log (agonist) vs. normalized response-variable slope.

human 5T4 on cells [2] = target: T1, human 5T4 on cells; assay: flow cytometry, HT-29 cells, streptavidin-PE, normalized MFI of 2 pooled experiments
Experimental: as §1

[3] = target: T2, CD137 / 4-1BB (soluble antigen, form not stated) (UniProt Q07011 24-186, limits assumed); assay: ELISA
T2 construct: also called biotinylated 4-1BB antigen; CD137 in ELISA

human 5T4 on cells [4] = target: T1, human 5T4 on cells; assay: flow cytometry, JAR cells, streptavidin-PE, normalized MFI of 2 pooled experiments
Experimental: (§2) Biotinylation: In order to detect ALG.APV-210 binding to 5T4-expressing cell lines, ALG.APV-210 was first biotinylated. The quality of the biotinylated protein and the impact on binding to its targets was assessed using ELISA.
as §1, with “concentration).” for “concentration). The antibodies were added in a serial dilution starting at 20 μg/mL titrating down in a 12 step 1/2 dilution down to 0.010 μg/mL.”

human 5T4 on cells [5] = target: T1, human 5T4 on cells; assay: flow cytometry, CT26-hu5T4^int cells, streptavidin-PE, normalized MFI of 2 pooled experiments
Experimental: as §2
as §1, with “concentration).” for “concentration). The antibodies were added in a serial dilution starting at 20 μg/mL titrating down in a 12 step 1/2 dilution down to 0.010 μg/mL.”

[6] = target: T3, cynomolgus CD137 on cells (cynomolgus macaque, UniProt A9YYE7 24-254); assay: flow cytometry, cynomolgus CD8 T cells gated from CD3-stimulated PBMC, normalized MFI, 2 pooled experiments
T3 construct: whole, on cells; also called CHO-K1/cynomolgus CD137; cynomolgus monkey CD137
Experimental: Isolation and stimulation of cynomolgus PBMC: Cynomolgus PBMC were isolated from 20 mL of cynomolgus monkey blood from 3 different donors, obtained from Silabe, France by density gradient centrifugation using Lympholyte-mammal (Cedarlane labs) according to manufacturer's instructions. Non-tissue treated 96 well plates were pre-coated overnight at 4° C. with 3 μg/mL α-monkey CD3, clone FN-18 (Invitrogen #APS0301). The cynomolgus PBMC were then stimulated identically as the human PBMC described above
FACS staining and analysis of CD8 T cells: Following 48 h of incubation with or without CD3, human and cynomolgus PBMC were harvested, pooled, recounted and diluted in FACS buffer (PBS+0.5% BSA, 0.05% NaN₃) to a concentration of 5×10⁶ cells/mL. 50 μL (0.25×10⁶ cells) of cell solution was added to a 96-well FACS staining plate (Falcon #351190). […] Cells were analysed for ALG.APV-210 binding using flow cytometry by gating on viable, single cells expressing CD3 and CD8. MFI values (FMO subtracted) from 2 independent experiments as well as normalized pooled data from 2 experiments and EC₅₀-values were determined and plotted using GraphPad Prism 7, non-linear regression log (agonist) vs. normalized response-variable slope, n=6 donors/group.

T3 sequence (A9YYE7 entry or part of it): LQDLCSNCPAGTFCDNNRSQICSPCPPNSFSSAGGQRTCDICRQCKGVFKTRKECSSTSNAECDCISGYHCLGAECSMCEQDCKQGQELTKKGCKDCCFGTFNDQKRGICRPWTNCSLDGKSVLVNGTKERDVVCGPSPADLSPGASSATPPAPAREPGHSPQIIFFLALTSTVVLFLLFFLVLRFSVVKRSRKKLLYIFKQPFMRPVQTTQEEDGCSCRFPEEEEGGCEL

B1: biotinylated ALG.APV-210 (bispecific antibody)
chain: EVQLLESGGGLVQPGGSLRLSCAASGFTFSHGSMYWVRQAPGKGLEWVSSISSGSGSTYYADSVKGRFTISHDNSKNTLYLQMNSLRAEDTAVYYCARSSYYGSYYSIDYWGQGTLVTVSSGGGGSGGGGSGGGGSGGGGSDIQMTQSPSSLSASVGDRVTITCRASQSISSYLNWYQQKPGKAPKLLIYAASSLQSGVPSRFSGSGSGTDFTLTISSLQPEDFATYYCQQYYDNLPTFGQGTKLEIKEPKSSDKTHTCPPCPAPEAAGAPSVFLFPPKPKDTLMISRTPEVTCVVVDVSHEDPEVKFNWYVDGVEVHNAKTKPREEQYNSTYRVVSVLTVLHQDWLNGKEYKCAVSNKALPAPIEKTISKAKGQPREPQVYTLPPSRDELTKNQVSLTCLVKGFYPSDIAVEWESNGQPENNYKTTPPVLDSDGSFFLYSKLTVDKSRWQQGNVFSCSVMHEALHNHYTQKSLSLSPGSGGGGSGGGGSGGGGSPSEVQLLESGGGLVQPGGSLRLSCAASGFTFSSYAMSWVRQAPGKCLEWVSAISGSGGSTYYADSVKGRFTISRDNSKNTLYLQMNSLRAEDTAVYYCARYYGGYYSAWMDYWGQGTLVTVSSGGGGSGGGGSGGGGSGGGGSDIQMTQSPSSLSASVGDRVTITCRASQSISSFLNWYQQKPGKAPKLLIYAASSLQSGVPSRFSGSGSGTDFTLTISSLQPEDSATYYCQQTYGYLHTFGCGTKLEIKR
modifications: biotinylated (sites not given)
- EC50 (human 5T4 on cells [1]): 20 nM
- EC50 (human 5T4 on cells [2]): 12 nM
- EC50 [3]: 0.6 nM
- EC50 (human 5T4 on cells [4]): 9 nM
- EC50 (human 5T4 on cells [5]): 12 nM
- EC50 [6]: 0.236 nM
